Results from patent publication US20250289861A1 (IMMUNOFORGE, published 2025).
Where a chain is given by its changes, count along the chain named. Numbers in names are those of the source.

B1: PF1802_M021 (GLP1-Fc-mut.IGF1) (Fc fusion)
chain: HGEGTFTSDVSSYLEEQAAKEFIAWLVKGGGGSAPAPGGGGSDKTHTCPPCPAPELLGGPSVFLFPPKPKDTLMISRTPEVTCVVVDVSHEDPEVKFNWYVDGVEVHNAKTKPREEQYASTYRVVSVLTVEHMDWLNGKEYKCKVSNKALPAPIEKTISKAKGQPREPQVYTLPPSREEMTKNQVSLTCLVKGFYPSDIAVEWESNGQPENNYKTTPPVLDSDGSFFLYSKLTVDKSRWQQGNVFSCSVLHEALHNHYTQKSLSLSPGKGGGGSGGGGSGGGGSGGGGSGAHSGPATLCGAELVDALQFVCGDRGFYFNKPTGYGSSSRRAPQTGIVDECCARSCDLRRLEMYCAPLKPTKST
notes: M008 with a half-life-increasing Fc: N297A, L309E, Q311M, M428L
B2: PF1802_M020 (GLP1-Fc-mut.IGF1) (Fc fusion)
chain: B1 chain with E131Y
notes: M008 with a half-life-increasing Fc: N297A, L309Y, Q311M, M428L
B3: PF1802_M022 (GLP1-Fc-mut.IGF1) (Fc fusion)
chain: B1 chain with M133W
notes: M008 with a half-life-increasing Fc: N297A, L309E, Q311W, M428L

target: T1, Human FcRn-GST protein (human, UniProt P55899 24-297; P61769 21-119, limits assumed); test: ELISA at pH 6.0: fusion protein coated on the plate, Human FcRn-GST titrated (x axis, ug/ml), anti-GST Ab-HRP, A450
T1 construct: not shown: GST tag
Procedure: To investigate the binding affinity of the PF1802_M020, M021, and M022 substances, obtained by introducing three types of blood half-life-increasing Fc to the PF1802-M008 candidate substance, to human FcRn, ELISA was performed, and to investigate the difference in binding affinity depending on pH, two situations at pH 6.0 and pH 7.4 were prepared, respectively. Specifically, each of the PF1802_M020, M021, and M022 substances was coated at 4 μg/mL on a 96 well immunoplate, and reacted with PBS (pH 6.0 and 7.4) containing 4% skim milk at room temperature for 1 hour to block non-specific binding. Thereafter, the Human FcRn-GST protein was diluted 4-fold from a maximum concentration of 5 μg/mL to 0.0003 μg/mL using PBS (pH 6.0, 7.4) containing 1% skim milk, and then dispensed into each well, followed by incubation at room temperature for 1 hour.

| EC50 (read off the curve) [µg/mL] | Binder |
| --- | --- |
| ~0.03 | B1 |
| ~0.04 | B2 |
| ~0.03 | B3 |
